The subject of one experiment is GFP-14-3-3β. Description: GFP-14-3-3β co-IP with LC-MS/MS, untreated GFP-14-3-3β versus GFP control (14-3-3 interactome). The note with it: pairwise comparison untreated vs GFP. Type of experiment: binding, human.
In experiment [1] the test system is GFP-14-3-3β and its binding proteins. Description: GFP-14-3-3β co-IP with LC-MS/MS label-free quantification, untreated versus PP1c-treated. Details: species or system human. The conditions noted are these: pairwise comparison PP1 vs untreated.
[2] abbreviates: log2 difference, label-free quantification, 3 replicates each.

B1: LBR (protein, UniProt Q14739 1-615, looked up)
Delta(14)-sterol reductase LBR: MPSRKFADGEVVRGRWPGSSLYYEVEILSHDSTSQLYTVKYKDGTELELKENDIKPLTSFRQRKGGSTSSSPSRRRGSRSRSRSRSPGRPPKSARRSASASHQADIKEARREVEVKLTPLILKPFGNSISRYNGEPEHIERNDAPHKNTQEKFSLSQESSYIATQYSLRPRREEVKLKEIDSKEEKYVAKELAVRTFEVTPIRAKDLEFGGVPGVFLIMFGLPVFLFLLLLMCKQKDPSLLNFPPPLPALYELWETRVFGVYLLWFLIQVLFYLLPIGKVVEGTPLIDGRRLKYRLNGFYAFILTSAVIGTSLFQGVEFHYVYSHFLQFALAATVFCVVLSVYLYMRSLKAPRNDLSPASSGNAVYDFFIGRELNPRIGTFDLKYFCELRPGLIGWVVINLVMLLAEMKIQDRAVPSLAMILVNSFQLLYVVDALWNEEALLTTMDIIHDGFGFMLAFGDLVWVPFIYSFQAFYLVSHPNEVSWPMASLIIVLKLCGYVIFRGANSQKNAFRKNPSDPKLAHLKTIHTSTGKNLLVSGWWGFVRHPNYLGDLIMALAWSLPCGFNHILPYFYIIYFTMLLVHREARDEYHCKKKYGVAWEKYCQRVPYRIFPYIY
As for B1, in the experiment with GFP-14-3-3β, the “Difference (log2), untreated vs GFP” value was 2.137 log2. Besides, the “Difference (log2), PP1 vs untreated” value in experiment [1] came to 0.1636 log2.

B2: MAGED2 (protein, UniProt Q9UNF1 2-606, looked up)
Melanoma-associated antigen D2: SDTSESGAGLTRFQAEASEKDSSSMMQTLLTVTQNVEVPETPKASKALEVSEDVKVSKASGVSKATEVSKTPEAREAPATQASSTTQLTDTQVLAAENKSLAADTKKQNADPQAVTMPATETKKVSHVADTKVNTKAQETEAAPSQAPADEPEPESAAAQSQENQDTRPKVKAKKARKVKHLDGEEDGSSDQSQASGTTGGRRVSKALMASMARRASRGPIAFWARRASRTRLAAWARRALLSLRSPKARRGKARRRAAKLQSSQEPEAPPPRDVALLQGRANDLVKYLLAKDQTKIPIKRSDMLKDIIKEYTDVYPEIIERAGYSLEKVFGIQLKEIDKNDHLYILLSTLEPTDAGILGTTKDSPKLGLLMVLLSIIFMNGNRSSEAVIWEVLRKLGLRPGIHHSLFGDVKKLITDEFVKQKYLDYARVPNSNPPEYEFFWGLRSYYETSKMKVLKFACKVQKKDPKEWAAQYREAMEADLKAAAEAAAEAKARAEIRARMGIGLGSENAAGPCNWDEADIGPWAKARIQAGAEAKAKAQESGSASTGASTSTNNSASASASTSGGFSAGASLTATLTFGLFAGLGGAGASTSGSSGACGFSYK
Regarding B2, the “Difference (log2), untreated vs GFP” value with GFP-14-3-3β was 0.4555 log2. Also, in experiment [1], the “Difference (log2), PP1 vs untreated” value is 0.1347 log2.

B3: DDX28 (protein, UniProt Q9NUL7 1-540, looked up)
Probable ATP-dependent RNA …: MALTRPVRLFSLVTRLLLAPRRGLTVRSPDEPLPVVRIPVALQRQLEQRQSRRRNLPRPVLVRPGPLLVSARRPELNQPARLTLGRWERAPLASQGWKSRRARRDHFSIERAQQEAPAVRKLSSKGSFADLGLEPRVLHALQEAAPEVVQPTTVQSSTIPSLLRGRHVVCAAETGSGKTLSYLLPLLQRLLGQPSLDSLPIPAPRGLVLVPSRELAQQVRAVAQPLGRSLGLLVRDLEGGHGMRRIRLQLSRQPSADVLVATPGALWKALKSRLISLEQLSFLVLDEADTLLDESFLELVDYILEKSHIAEGPADLEDPFNPKAQLVLVGATFPEGVGQLLNKVASPDAVTTITSSKLHCIMPHVKQTFLRLKGADKVAELVHILKHRDRAERTGPSGTVLVFCNSSSTVNWLGYILDDHKIQHLRLQGQMPALMRVGIFQSFQKSSRDILLCTDIASRGLDSTGVELVVNYDFPPTLQDYIHRAGRVGRVGSEVPGTVISFVTHPWDVSLVQKIELAARRRRSLPGLASSVKEPLPQAT
As to B3, the “Difference (log2), untreated vs GFP” value with GFP-14-3-3β is on record as 0.1408 log2. Besides, the “Difference (log2), PP1 vs untreated” value in experiment [1] is on record as 0.1504 log2.

B4: CLPTM1L (protein, UniProt Q96KA5 1-538, looked up)
Lipid scramblase CLPTM1L: MWSGRSSFTSLVVGVFVVYVVHTCWVMYGIVYTRPCSGDANCIQPYLARRPKLQLSVYTTTRSHLGAENNIDLVLNVEDFDVESKFERTVNVSVPKKTRNNGTLYAYIFLHHAGVLPWHDGKQVHLVSPLTTYMVPKPEEINLLTGESDTQQIEAEKKPTSALDEPVSHWRPRLALNVMADNFVFDGSSLPADVHRYMKMIQLGKTVHYLPILFIDQLSNRVKDLMVINRSTTELPLTVSYDKVSLGRLRFWIHMQDAVYSLQQFGFSEKDADEVKGIFVDTNLYFLALTFFVAAFHLLFDFLAFKNDISFWKKKKSMIGMSTKAVLWRCFSTVVIFLFLLDEQTSLLVLVPAGVGAAIELWKVKKALKMTIFWRGLMPEFQFGTYSESERKTEEYDTQAMKYLSYLLYPLCVGGAVYSLLNIKYKSWYSWLINSFVNGVYAFGFLFMLPQLFVNYKLKSVAHLPWKAFTYKAFNTFIDDVFAFIITMPTSHRLACFRDDVVFLVYLYQRWLYPVDKRRVNEFGESYEEKATRAPHTD
Turning to B4, the “Difference (log2), untreated vs GFP” value in the experiment with GFP-14-3-3β is recorded as 0.3996 log2. Further, the “Difference (log2), PP1 vs untreated” value in experiment [1] is 0.154 log2.

B5: KTN1 (protein, UniProt Q86UP2 1-1357, looked up)
Kinectin: MEFYESAYFIVLIPSIVITVIFLFFWLFMKETLYDEVLAKQKREQKLIPTKTDKKKAEKKKNKKKEIQNGNLHESDSESVPRDFKLSDALAVEDDQVAPVPLNVVETSSSVRERKKKEKKQKPVLEEQVIKESDASKIPGKKVEPVPVTKQPTPPSEAAASKKKPGQKKSKNGSDDQDKKVETLMVPSKRQEALPLHQETKQESGSGKKKASSKKQKTENVFVDEPLIHATTYIPLMDNADSSPVVDKREVIDLLKPDQVEGIQKSGTKKLKTETDKENAEVKFKDFLLSLKTMMFSEDEALCVVDLLKEKSGVIQDALKKSSKGELTTLIHQLQEKDKLLAAVKEDAAATKDRCKQLTQEMMTEKERSNVVITRMKDRIGTLEKEHNVFQNKIHVSYQETQQMQMKFQQVREQMEAEIAHLKQENGILRDAVSNTTNQLESKQSAELNKLRQDYARLVNELTEKTGKLQQEEVQKKNAEQAATQLKVQLQEAERRWEEVQSYIRKRTAEHEAAQQDLQSKFVAKENEVQSLHSKLTDTLVSKQQLEQRLMQLMESEQKRVNKEESLQMQVQDILEQNEALKAQIQQFHSQIAAQTSASVLAEELHKVIAEKDKQIKQTEDSLASERDRLTSKEEELKDIQNMNFLLKAEVQKLQALANEQAAAAHELEKMQQSVYVKDDKIRLLEEQLQHEISNKMEEFKILNDQNKALKSEVQKLQTLVSEQPNKDVVEQMEKCIQEKDEKLKTVEELLETGLIQVATKEEELNAIRTENSSLTKEVQDLKAKQNDQVSFASLVEELKKVIHEKDGKIKSVEELLEAELLKVANKEKTVQDLKQEIKALKEEIGNVQLEKAQQLSITSKVQELQNLLKGKEEQMNTMKAVLEEKEKDLANTGKWLQDLQEENESLKAHVQEVAQHNLKEASSASQFEELEIVLKEKENELKRLEAMLKERESDLSSKTQLLQDVQDENKLFKSQIEQLKQQNYQQASSFPPHEELLKVISEREKEISGLWNELDSLKDAVEHQRKKNNDLREKNWEAMEALASTEKMLQDKVNKTSKERQQQVEAVELEAKEVLKKLFPKVSVPSNLSYGEWLHGFEKKAKECMAGTSGSEEVKVLEHKLKEADEMHTLLQLECEKYKSVLAETEGILQKLQRSVEQEENKWKVKVDESHKTIKQMQSSFTSSEQELERLRSENKDIENLRREREHLEMELEKAEMERSTYVTEVRELKDLLTELQKKLDDSYSEAVRQNEELNLLKAQLNETLTKLRTEQNERQKVAGDLHKAQQSLELIQSKIVKAAGDTTVIENSDVSPETESSEKETMSVSLNQTVTQLQQLLQAVNQQLTKEKEHYQVLE
Regarding B5, the “Difference (log2), untreated vs GFP” value with GFP-14-3-3β (setting [2]) is given as -1.401. Also, in experiment [1] (setting [2]), the “Difference (log2), PP1 vs untreated” value is reported as 2.052.

B6: CCDC18 (protein, UniProt Q5T9S5 1-1454, looked up)
Coiled-coil domain-containing …: MESSSSDYYNKDNEEESLLANVASLRHELKITEWSLQSLGEELSSVSPSENSDYAPNPSRSEKLILDVQPSHPGLLNYSPYENVCKISGSSTDFQKKPRDKMFSSSAPVDQEIKSLREKLNKLRQQNACLVTQNHSLMTKFESIHFELTQSRAKVSMLESAQQQAASVPILEEQIINLEAEVSAQDKVLREAENKLEQSQKMVIEKEQSLQESKEECIKLKVDLLEQTKQGKRAERQRNEALYNAEELSKAFQQYKKKVAEKLEKVQAEEEILERNLTNCEKENKRLQERCGLYKSELEILKEKLRQLKEENNNGKEKLRIMAVKNSEVMAQLTESRQSILKLESELENKDEILRDKFSLMNENRELKVRVAAQNERLDLCQQEIESSRVELRSLEKIISQLPLKRELFGFKSYLSKYQMSSFSNKEDRCIGCCEANKLVISELRIKLAIKEAEIQKLHANLTANQLSQSLITCNDSQESSKLSSLETEPVKLGGHQVESVKDQNQHTMNKQYEKERQRLVTGIEELRTKLIQIEAENSDLKVNMAHRTSQFQLIQEELLEKASNSSKLESEMTKKCSQLLTLEKQLEEKIVAYSSIAAKNAELEQELMEKNEKIRSLETNINTEHEKICLAFEKAKKIHLEQHKEMEKQIERLEAQLEKKDQQFKEQEKTMSMLQQDIICKQHHLESLDRLLTESKGEMKKENMKKDEALKALQNQVSEETIKVRQLDSALEICKEELVLHLNQLEGNKEKFEKQLKKKSEEVYCLQKELKIKNHSLQETSEQNVILQHTLQQQQQMLQQETIRNGELEDTQTKLEKQVSKLEQELQKQRESSAEKLRKMEEKCESAAHEADLKRQKVIELTGTARQVKIEMDQYKEELSKMEKEIMHLKRDGENKAMHLSQLDMILDQTKTELEKKTNAVKELEKLQHSTETELTEALQKREVLETELQNAHGELKSTLRQLQELRDVLQKAQLSLEEKYTTIKDLTAELRECKMEIEDKKQELLEMDQALKERNWELKQRAAQVTHLDMTIREHRGEMEQKIIKLEGTLEKSELELKECNKQIESLNDKLQNAKEQLREKEFIMLQNEQEISQLKKEIERTQQRMKEMESVMKEQEQYIATQYKEAIDLGQELRLTREQVQNSHTELAEARHQQVQAQREIERLSSELEDMKQLSKEKDAHGNHLAEELGASKVREAHLEARMQAEIKKLSAEVESLKEAYHMEMISHQENHAKWKISADSQKSSVQQLNEQLEKAKLELEEAQDTVSNLHQQVQDRNEVIEAANEALLTKESELTRLQAKISGHEKAEDIKFLPAPFTSPTEIMPDVQDPKFAKCFHTSFSKCTKLRRSISASDLTFKIHGDEDLSEELLQDLKKMQLEQPSTLEESHKNLTYTQPDSFKPLTYNLEADSSENNDFNTLSGMLRYINKEVRLLKKSSMQTGAGLNQGENV
As to B6, in the experiment with GFP-14-3-3β, the “Difference (log2), untreated vs GFP” value was 0.2347 log2. Further, the “Difference (log2), PP1 vs untreated” value in experiment [1] turned out to be 0.1672 log2.

(Values after article PMC7367873, “Dissecting the sequence determinants for dephosphorylation by the catalytic subunits of phosphatases PP1 and PP2A” (Nature Communications, 2020).)
